B1: ATGL (PNPLA2, patatin-like phospholipase domain-containing protein 2), human, full length / G0S2 (G0/G1 switch protein 2), human (parent)
chain 1: MFPREKTWNISFAGCGFLGVYYVGVASCLREHAPFLVANATHIYGASAGALTATALVTGVCLGEAGAKFIEVSKEARKRFLGPLHPSFNLVKIIRSFLLKVLPADSHEHASGRLGISLTRVSDGENVIISHFNSKDELIQANVCSGFIPVYCGLIPPSLQGVRYVDGGISDNLPLYELKNTITVSPFSGESDICPQDSSTNIHELRVTNTSIQFNLRNLYRLSKALFPPEPLVLREMCKQGYRDGLRFLQRNGLLNRPNPLLALPPARPHGPEDKDQAVESAQAEDYSQLPGEDHILEHLPARLNEALLEACVEPTDLLTTLSNMLPVRLATAMMVPYTLPLESALSFTIRLLEWLPDVPEDIRWMKEQTGSICQYLVMRAKRKLGRHLPSRLPEQVELRRVQSLPSVPLSCAAYREALPGWMRNNLSLGDALAKWEECQRQLLLGLFCTNVAFPPEALRMRAPADPAPAPADPASPQHQLAGPAPLLSTPAPEARPVIGALGL
chain 2: METVQELIPLAKEMMAQKRKGKMVKLYVLGSVLALFGVVLGLMETVCSPFTAARRLRDQEAAVAELQAALERQALQKQALQEKGKQQDTVLGGRALSNRQHAS

Variants of B1 are the subject of this experiment. Nature of the experiment: LUMIER: Protein A-ATGL variant and firefly luciferase-partner co-expressed in HEK293T, lysates immunoprecipitated on IgG-coated plates, co-precipitated partner measured as luciferase luminescence. Conditions: with G0S2 (G0/G1 switch protein 2), transient co-transfection, IgG-coated LUMITRAC plates, 2 h at 4 °C, three PBS washes, Bright-Glo luciferase reagent, triplicates per assay, two …, scale: log2 fold change of co-immunoprecipitated luminescence relative to wild-type ATGL within each experiment.

With chain 1 MFPREKTWNISFAGCGFLGVYYVGVASCLREHAPFLVANATHIYGASAGALTATALVTGVCLGEAGAKFIEVSKEARKRFLGPLHPSFNLVKIIRSFLLKVLPADSHEHASGRLGISLTRVSDGENVIISHFNSKDELIQANVCSGFIPVYCGLIPPSLQGVRYVDGGISDNLPLYELKLTITVSPFSGESDICPQDSSTNIHELRVTNTSIQFNLRNLYRLSKALFPPEPLVLREMCKQGYRDGLRFLQRNGLLNRPNPLLALPPARPHGPEDKDQAVESAQAEDYSQLPGEDHILEHLPARLNEALLEACVEPTDLLTTLSNMLPVRLATAMMVPYTLPLESALSFTIRLLEWLPDVPEDIRWMKEQTGSICQYLVMRAKRKLGRHLPSRLPEQVELRRVQSLPSVPLSCAAYREALPGWMRNNLSLGDALAKWEECQRQLLLGLFCTNVAFPPEALRMRAPADPAPAPADPASPQHQLAGPAPLLSTPAPEARPVIGALGL [chain 1 N180L], the screen value runs as follows: (parent: 0.26, not graded) -1.96; (parent: 0.56, not graded) -1.94.
Take chain 1 MFPREKTWNISFAGCGFLGVYYVGVASCLREHAPFLVANATHIYGASAGALTATALVTGVCLGEAGAKFIEVSKEARKRFLGPLHPSFNLVKIIRSFLLKVLPADSHEHASGRLGISLTRVSDGENVIISHFNSKDELIQANVCSGFIPVYCGLIPPSLQGVRYVDGGISDNLPLYELKNTITVSPFSGESDICPQDSSTNIHELRVTNTSIQFNLRNLYRLSKALFPPEPLVLREMCKQGYRDGLRFLQRNGLLNRPNPELALPPARPHGPEDKDQAVESAQAEDYSQLPGEDHILEHLPARLNEALLEACVEPTDLLTTLSNMLPVRLATAMMVPYTLPLESALSFTIRLLEWLPDVPEDIRWMKEQTGSICQYLVMRAKRKLGRHLPSRLPEQVELRRVQSLPSVPLSCAAYREALPGWMRNNLSLGDALAKWEECQRQLLLGLFCTNVAFPPEALRMRAPADPAPAPADPASPQHQLAGPAPLLSTPAPEARPVIGALGL [chain 1 L261E]: the screen value is, setting by setting: (parent: 0.26, not graded) -0.622; (parent: 0.56, not graded) -0.673.
The like results for chain 1 MFPREKTWNISFAGCGFLGVYYVGVASCLREHAPFLVAEATHIYGASAGALTATALVTGVCLGEAGAKFIEVSKEARKRFLGPLHPSFNLVKIIRSFLLKVLPADSHEHASGRLGISLTRVSDGENVIISHFNSKDELIQANVCSGFIPVYCGLIPPSLQGVRYVDGGISDNLPLYELKNTITVSPFSGESDICPQDSSTNIHELRVTNTSIQFNLRNLYRLSKALFPPEPLVLREMCKQGYRDGLRFLQRNGLLNRPNPLLALPPARPHGPEDKDQAVESAQAEDYSQLPGEDHILEHLPARLNEALLEACVEPTDLLTTLSNMLPVRLATAMMVPYTLPLESALSFTIRLLEWLPDVPEDIRWMKEQTGSICQYLVMRAKRKLGRHLPSRLPEQVELRRVQSLPSVPLSCAAYREALPGWMRNNLSLGDALAKWEECQRQLLLGLFCTNVAFPPEALRMRAPADPAPAPADPASPQHQLAGPAPLLSTPAPEARPVIGALGL [chain 1 N39E] were, in that order, -2.73 and -2.67.
